Source: the supplement of paper PMC6757056
± gives the standard deviation of the averaged measurements.

B1: library; a variant is named by its letters at N, in order (parent)
chain: GCUGUCACCGGUGUAUUACCCUAGUGGUCGACCGGUCUGAUGAGUCUNNNNNNAGACGAAACAGC

Columns and labels:
[1] = variants of: B1; assay: FACS-Seq fitted mean relative fluorescence mCherry/BFP without ligand (log10 relative fluorescence); ligand: hypoxanthine (xanthine aptamer); higher = higher reporter protein expression; settings: HEK293T, ligand present: no
Summary of the method: (§1)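 HEK293T libraries were lentivirally transduced with an mCherry reporter carrying the ribozyme switch and an EF1α-BFP marker, enriched, and incubated for 48 h with or without ligand before sorting into 6 bins by mCherry/BFP. Genomic DNA from each bin was PCR-amplified, barcoded and sequenced on MiSeq. Fluorescence is the fitted normal mean of the bin counts. The fit used log10(mCherry/BFP), and means were scaled to five spiked-in control ribozymes.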

[2] = variants of: B1; assay: normalized RNA/DNA level with ligand (relative to sTRSVctl = 100) (log10 (% of sTRSVctl)); ligand: hypoxanthine (xanthine aptamer); higher = less ribozyme self-cleavage, higher mRNA level; settings: ligand concentration (+) RNA-Seq: 5 mM, HEK293T, reporter: mCherry (pCS4076), ligand present: yes
Description: (§2)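 Hammerhead (sTRSV) ribozyme switch libraries with a ligand aptamer grafted on stem I and a randomized N4-6 loop II, cloned into the 3' UTR of mCherry and transiently transfected into HEK293T cells; RNA-Seq 72 h post transfection with ligand added 1 h before transfection; RNA read count / plasmid DNA read count normalized to the non-cleaving sTRSVctl (x100), log10; sequences with >100 DNA reads. FACS-Seq: lentiviral library sorted into 6 bins after 48 h ligand, log-normal fit mean of mCherry/BFP scaled to controls. Printed sequences are partial switch sequences.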

[3] = variants of: B1; assay: normalized RNA/DNA level without ligand (relative to sTRSVctl = 100) (log10 (% of sTRSVctl)); ligand: hypoxanthine (xanthine aptamer); higher = less ribozyme self-cleavage, higher mRNA level; settings: HEK293T, reporter: mCherry (pCS4076), ligand present: no
Description: as §2

[4] = variants of: B1; assay: FACS-Seq fitted mean relative fluorescence mCherry/BFP with ligand (log10 relative fluorescence); ligand: hypoxanthine (xanthine aptamer); ligand concentration (+) FACS-Seq: 5 mM; higher = higher reporter protein expression; settings: HEK293T, ligand present: yes
Summary of the method: as §1

Variant | FACS-Seq fitted mean (log10) [1] | normalized RNA/DNA level with ligand (log10) [2] | normalized RNA/DNA level without ligand (log10) [3] | FACS-Seq fitted mean (log10) [4]
GAGCAG | -0.00628 ± 0.045 | 1.67 ± 0.027 | 1.19 ± 0.024 | 0.5054 ± 0.0013
GAGCAC | 0.773 ± 0.029 | 1.89 ± 0.037 | 1.71 ± 0.05 | 0.682 ± 0.074
GAGCAA | 0.362 ± 0.027 | 1.892 ± 0.013 | 1.581 ± 0.0039 | 0.596 ± 0.09
CAGUGG | 0.315 ± 0.042 | 1.9 ± 0.024 | 1.32 ± 0.043 | 0.629 ± 0.11
CAGUGU | 0.44 ± 0.086 | 1.924 ± 0.002 | 1.87 ± 0.016 | 0.795 ± 0.017
CAGUGA | 0.406 ± 0.012 | 1.89 ± 0.076 | 1.71 ± 0.057 | 0.487 ± 0.032
UAGCGG | 0.335 ± 0.051 | 1.875 ± 0.017 | 1.542 ± 0.011 | 0.534 ± 0.035
UAGCGA | 0.324 ± 0.049 | 1.89 ± 0.041 | 1.65 ± 0.025 | 0.447 ± 0.054
GAGCUG | 0.345 ± 0.0035 | 1.86 ± 0.03 | 1.31 ± 0.028 | 0.75 ± 0.083
GAGCUA | 0.221 ± 0.077 | 1.925 ± 0.018 | 1.722 ± 0.004 | 0.293 ± 0.039
AAGUAC | 0.425 ± 0.075 | 1.89 ± 0.065 | 1.647 ± 0.015 | 0.673 ± 0.064
AAGUAA | 0.279 ± 0.049 | 1.86 ± 0.036 | 1.601 ± 0.012 | 0.457 ± 0.048
AAGUAG | -0.0595 ± 0.042 | 1.593 ± 0.013 | 1.1 ± 0.048 | 0.568 ± 0.023
AAGUAU | 0.434 ± 0.12 | 1.895 ± 0.011 | 1.68 ± 0.019 | 0.301 ± 0.0055
CAGGGG | 0.166 ± 0.0056 | 1.75 ± 0.036 | 1.23 ± 0.06 | 0.48135 ± 0.00032
UAGGUC | 0.588 ± 0.034 | 1.978 ± 0.0051 | 1.95 ± 0.054 | 0.577 ± 0.036
UAGGUG | 0.399 ± 0.065 | 1.89 ± 0.079 | 1.61 ± 0.035 | 0.591 ± 0.012
UAGAGG | 0.0918 ± 0.042 | 1.75 ± 0.038 | 1.21 ± 0.03 | 0.552 ± 0.011

Variant | FACS-Seq fitted mean (log10) [1] | normalized RNA/DNA level with ligand (log10) [2] | normalized RNA/DNA level without ligand (log10) [3] | FACS-Seq fitted mean (log10) [4]
UAGAGA | -0.0593 ± 0.041 | 1.9 ± 0.051 | 1.39 ± 0.036 | 0.431 ± 0.029
UAGAGU | 0.11 ± 0.061 | 1.74 ± 0.09 | 1.21 ± 0.04 | 0.536 ± 0.099
AAUAAA | 0.416 ± 0.064 | 1.872 ± 0.014 | 1.756 ± 0.011 | 0.252 ± 0.092
AAUAAG | 0.306 ± 0.0098 | 1.83 ± 0.024 | 1.473 ± 0.005 | 0.638 ± 0.04
UAGGCC | 0.378 ± 0.066 | 2.002 ± 0.0047 | 1.954 ± 0.0025 | 0.564 ± 0.03
AAGCGA | 0.221 ± 0.0035 | 1.91 ± 0.052 | 1.43 ± 0.024 | 0.391 ± 0.04
AAGCGU | 0.27 ± 0.0081 | 1.89 ± 0.05 | 1.62 ± 0.035 | 0.579 ± 0.013
AAGCGG | -0.261 ± 0.031 | 1.65 ± 0.026 | 1.2 ± 0.027 | 0.442 ± 0.054
CACUUU | 0.525 ± 0.016 | 1.89 ± 0.036 | 1.847 ± 0.0042 | 0.491 ± 0.011
CACUUC | -0.745 ± 0.014 | 1.884 ± 0.015 | 1.93 ± 0.066 | -0.484 ± 0.033
AAGUGG | 0.227 ± 0.067 | 1.57 ± 0.1 | 1.093 ± 0.0029 | 0.765 ± 0.065
AAGUGA | -0.0239 ± 0.018 | 1.81 ± 0.02 | 1.47 ± 0.019 | 0.0676 ± 0.035
AAGUGU | 0.111 ± 0.029 | 1.89 ± 0.046 | 1.571 ± 0.015 | 0.229 ± 0.011
AAGGAU | 0.678 ± 0.038 | 1.91 ± 0.037 | 1.653 ± 0.013 | 0.732 ± 0.042
AAGGAG | 0.245 ± 0.003 | 1.62 ± 0.068 | 1.12 ± 0.047 | 0.589 ± 0.11
AAGGAA | 0.159 ± 0.16 | 1.869 ± 0.015 | 1.53 ± 0.0077 | 0.411 ± 0.07
UAGAAU | 0.3304 ± 0.003 | 1.9 ± 0.023 | 1.72 ± 0.03 | 0.6203 ± 0.0037
UAGAAA | 0.355 ± 0.024 | 1.88 ± 0.052 | 1.702 ± 0.013 | 0.469 ± 0.053
